1 protein from ChEMBL document CHEMBL2074219, “Cellular uptake mechanism of amino acid ester prodrugs in Caco-2/hPEPT1 cells overexpressing a human peptide transporter” (Pharm Res, 1998) can be followed below.

Substrate in data set [1]: CN(CC(=O)O)C(=O)CN
Kind of data set: TP_TRANSPORTER: uptake in Caco-2 cells. It counts as functional, cell-based.

Substrate in data set [2]: CN(CC(=O)O)C(=O)CN
The data set can be described thus: TP_TRANSPORTER: uptake in PEPT1-overexpressing Caco-2 cells. It counts as functional, cell-based.

B1: Solute carrier family 15 member 1 (Homo sapiens), P46059 (protein)
chain: MGMSKSHSFFGYPLSIFFIVVNEFCERFSYYGMRAILILYFTNFISWDDNLSTAIYHTFVALCYLTPILGALIADSWLGKFKTIVSLSIVYTIGQAVTSVSSINDLTDHNHDGTPDSLPVHVVLSLIGLALIALGTGGIKPCVSAFGGDQFEEGQEKQRNRFFSIFYLAINAGSLLSTIITPMLRVQQCGIHSKQACYPLAFGVPAALMAVALIVFVLGSGMYKKFKPQGNIMGKVAKCIGFAIKNRFRHRSKAFPKREHWLDWAKEKYDERLISQIKMVTRVMFLYIPLPMFWALFDQQGSRWTLQATTMSGKIGALEIQPDQMQTVNAILIVIMVPIFDAVLYPLIAKCGFNFTSLKKMAVGMVLASMAFVVAAIVQVEIDKTLPVFPKGNEVQIKVLNIGNNTMNISLPGEMVTLGPMSQTNAFMTFDVNKLTRINISSPGSPVTAVTDDFKQGQRHTLLVWAPNHYQVVKDGLNQKPEKGENGIRFVNTFNELITITMSGKVYANISSYNASTYQFFPSGIKGFTISSTEIPPQCQPNFNTFYLEFGSAYTYIVQRKNDSCPEVKVFEDISANTVNMALQIPQYFLLTCGEVVFSVTGLEFSYSQAPSNMKSVLQAGWLLTVAVGNIIVLIVAGAGQFSKQWAEYILFAALLLVVCVIFAIMARFYTYINPAEIEAQFDEDEKKNRLEKSNPYFMSGANSQKQM
For B1, the Km (commonly the concentration of substrate that gives half-maximal velocity) came out at 700 µM in data set [1] and 2100 µM in data set [2].
